Patent publication US20120164670A1, “METHODS AND KITS FOR MEASURING ENZYME ACTIVITY” (President and Fellows of Harvard College, priority 2009, published 2012)

Substrate: CC(=O)NCCCC[C@H](NC(=O)[C@H](CCCNC(=N)N)NC(=O)[C@H](C)NC(=O)[C@@H](N)[C@@H](C)O)C(=O)N[C@@H](CO)C(=O)N[C@H](C(=O)NCC(=O)O)[C@@H](C)O
Experiment: Sirtuin assay kit (PNC1-OPT) with hSIRT1 enzyme
Type: biochemical, human
Details: other: kit protocol, Experiment 2 mastermix; pH 8.0; 37.0 °C
Description: Kit contents are generally stored at −20° C. Modifications or variations in volumes or amounts of components described below are compatible with kits and assays described herein. • 1) Assay Buffer: 2 tubes with 1 mL each of 10× Assay Buffer. Dilute to 1× with ddH20 prior to use. • 2) Non-tagged Peptide Substrate: 1 tube with 140 uL of 5 mM H3K9ac substrate (TARK(ac)STG)) (SEQ ID NO:23). This is a sample substrate only; any substrate may be used in this assay. • 3) β-NAD: a) 1 tube with 450 uL of 10 mM B-NAD, and b) 1 tube with 50 uL of 100 mM B-NAD. In some instances, it is preferable to keep β-NAD in concentrated aliquot form, and dilute it prior to use. • 4) hSIRT1 Enzyme: 1 tube with 400 uL of 1.1 ug/uL full-length human SIRT1 enzyme. • 5) yPNC1 Enzyme: 1 tube with 200 uL of 2 ug/uL yeast PNC1 enzyme • 6) Developing Reagent: 2 vials with 10 mL each 1× Developer (10 mM OPT/10 mM DTT in 100% EtOH). Minimize exposure to light as outlined in the procedure. […]
In some instances, when adding the OPT Developer it is advisable to work in a dark or dimly lit setting. […] Once covered, ambient lighting may be restored. • d) Read the samples. Samples may be transferred to a 96-well plate for reading (do this under dim light). Read the fluorescence on a fluorometer with filters set to excitation ˜420 nm, and emission ˜460 nm. […]

B1: full-length human SIRT1 enzyme (Homo sapiens) (protein)
chain: MADEAALALQPGGSPSAAGADREAASSPAGEPLRKRPRRDGPGLERSPGEPGGAAPEREVPAAARGCPGAAAAALWREAEAEAAAAGGEQEAQATAAAGEGDNGPGLQGPSREPPLADNLYDEDDDDEGEEEEEAAAAAIGYRDNLLFGDEIITNGFHSCESDEEDRASHASSSDWTPRPRIGPYTFVQQHLMIGTDPRTILKDLLPETIPPPELDDMTLWQIVINILSEPPKRKKRKDINTIEDAVKLLQECKKIIVLTGAGVSVSCGIPDFRSRDGIYARLAVDFPDLPDPQAMFDIEYFRKDPRPFFKFAKEIYPGQFQPSLCHKFIALSDKEGKLLRNYTQNIDTLEQVAGIQRIIQCHGSFATASCLICKYKVDCEAVRGDIFNQVVPRCPRCPADEPLAIMKPEIVFFGENLPEQFHRAMKYDKDEVDLLIVIGSSLKVRPVALIPSSIPHEVPQILINREPLPHLHFDVELLGDCDVIINELCHRLGGEYAKLCCNPVKLSEITEKPPRTQKELAYLSELPPTPLHVSEDSSSPERTSPPDSSVIVTLLDQAAKSNDDLDVSESKGCMEEKPQEVQTSRNVESIAEQMENPDLKNVGSSTGEKNERTSVAGTVRKCWPNRVAKEQISRRLDGNQYLFLPPNRYIFHGAEVYSDSEDDVLSSSSCGSNSDSGTCQSPSLEEPMEDESEIEEFYNGLEDEPDVPERAGGAGFGTDGDDQEAINEAISVKQEVTDMNYPSNKS
notes: 1.1 ug/uL full-length human SIRT1 enzyme
Question: Which Km does the source give for B1 here?
Answer: 50 µM
